# Laboratory results: PMC7914648 (Pharmaceuticals, 2021)
# Entries after “also recorded” stand apart in the source; their conditions may differ.
# Assays:
# [1] = Tissue distribution of An2-PAPTP and metabolites (liver, spleen, kidneys, heart) after i.v. injection; assay type: in vivo, mouse
# Excerpt: The total amount of An2-PAPTP and its metabolites, summarized in Table 3, is comprehensive of all the species having the characteristic psoralenic UV spectrum obtained by the overall extraction procedure (i.e., from organic solvent extraction and basic hydrolysis of the remaining pellet), and represents and underestimation of the real concentration in the tissue (see Section 4.7.3). This is because no recovery yield correction was applied, since it was impossible to identify most of the species extracted, and because PAPTPL extracted after high-pH hydrolysis of the pellet could come either from An2-PAPTP or from metabolites. For quantification in HPLC analysis, all the psoralenic species were assumed to have the same molar extinction coefficient as PAPTPL, an assumption justified by the near-identity observed for all the available psoralen-containing molecules.
# (§1) The liver, spleen, kidneys, heart obtained from untreated mice were weighed and homogenized with PBS pH 7.4 (1 vol) with a potter. The pre-established amount of PAPTPL was added into tissue homogenates or blood and, after thorough vortexing, 5 vol of acetone were added and the sample was sonicated for 2 min. Subsequently, 5 vol of ACN containing 0.1% TFA were added and the sample was sonicated for 5 min. The sample was then centrifuged at 12,000× g for 7 min at 4 °C and the supernatant was collected, concentrated with a Hetovac VR-1, and analyzed via HPLC-UV.
# as §1, with “Brain and liver” for “The liver, spleen, kidneys, heart”, “analyte” for “PAPTPL”, “homogenates” for “homogenates or blood”, “trifluoracetic acid (TFA)” for “TFA”
# To quantify the amount of An2-PAPTP stuck in the tissue, the pellet remaining after the procedure described above was incubated with intermittent Vortexing at 60 °C for 3 h with PBS pH 12.5/ACN 1:1 and then centrifuged at 12,000× g for 7 min. HPLC-UV analysis of the supernatant, measuring PAPTPL hydrolyzed from the tissue, thus indirectly reflects the amount of An2-PAPTPL in the pellet (Scheme 3). Quantification was as described for PAPTPL.
# (§2) A stock solution of the peptide-PAPTP conjugates was prepared in DMSO. TAT-PAPTP was administered at 8 and 5 μmol/kg bw and An2-PAPTP only at 5 μmol/kg bw. The calculated quantity of drugs was diluted from the stock solution in saline or mouse plasma to a final volume of 200 μL.
# [2] = Aqueous solubility determination; assay type: physicochemical
# Description: For TAT-PAPTP and An2-PAPTP, three distinct suspensions were prepared by diluting 25 mM stock solutions in DMSO to 100 μM, in 0.9% NaCl saline or water (DMSO < 0.4%). The suspensions were sonicated 5 min and immediately analyzed. The suspensions were then centrifuged at 12,000× g, 18 °C, for 1 and 2 h, and the supernatants were analyzed by HPLC/UV at the end of each centrifugation. An additional analysis was performed after 24 h of standing. The chromatographic peak areas were used to determine the concentration of the compound in the supernatants, based on calibration curves built using solutions in DMSO.
# [3] = tested on: C57BL mice; assay: Observed toxicity after tail vein injection; assay type: in vivo; conditions: 5 µmoles/kg bw by tail vein injection in mouse plasma; no proper toxicological study
# Description: TAT-PAPTP (5 µmoles/kg bw) was administered by tail vein injection to 2 C57BL mice. […] The observed toxicity was not due to the use of plasma, since mice were not made ill by the administration of PAPTP or An2-PAPTP in the same vehicle (see below, Section 2.7).
# as §2
# [4] = tested on: mouse Red Blood Cells; assay: Haemolysis assay; assay type: cell-based; conditions: 5 × 10^7 mouse erythrocytes in 1 mL PBS pH 7.4, 2, 1 or 0.5 µM, 15 min, absorbance 540 nm, n = 3
# Description: Haemolysis studies were conducted as described in [72]. Briefly, freshly withdrawn blood samples were centrifuged at 1000× g for 10 min to obtain erythrocytes; the pellet was then washed thrice with sterile PBS (pH 7.4). Erythrocytes (5 × 10^7 cells in 1 mL of PBS for each experimental condition) were incubated with 2, 1 or 0.5 µM An2-PAPTP or TAT-PAPTP for 15 min. The samples were then centrifuged and absorbance (Abs) of the supernatant was measured at 540 nm. Triton X-100 1% and PBS were used as positive and negative control, respectively.
# The percentage of haemolysis was calculated with the following equation:% haemolysis = [(Abssample − AbsPBS)/AbsTriton X-100 − AbsPBS)] × 100
# [5] = Stability in blood (hydrolysis, PAPTPL release); assay type: in vitro ADME; conditions: fresh heparinized C57BL mouse blood, 37 °C, 5 µM from 5 mM DMSO stock, HPLC-UV, % PAPTPL released relative to amount spiked, mean, n = 5 (An2-PAPTP) and 4 (TAT-PAPTP)
# Description: C57BL mice were anesthetized and blood was withdrawn from the jugular vein and heparinized. Blood samples (1 mL) were spiked with compound (5 µM; dilution from a 5 mM stock solution in DMSO) and incubated at 37 °C for 4 h (the maximum period allowed by blood stability). Aliquots were taken after 10 min, 30 min, 1 h, 2 h, and 4 h before HPLC-UV analysis.
# Each aliquot was treated as described above (Section 4.7.1). Compound stability in blood was expressed as % of PAPTPL released relative to the amount of An2-PAPTP and TAT-PAPTP spiked in the sample at time 0.
# [6] = An2-PAPTP 5 µmoles/kg bw i.v., all psoralenic species, 312 nm, no recovery correction, mean ± SEM, n = 5
# [7] = An2-PAPTP i.v., found in one animal out of four
# [8] = An2-PAPTP i.v., mean ± SEM, n = 4
# [9] = An2-PAPTP i.v., mean ± SEM, n = 5
# [10] = An2-PAPTP i.v., mean ± SEM, n = 6
smiles,measurement,setting,value
CC[C@H](C)[C@H](NC(=O)Oc1ccc(CCCOc2ccc([P+](CCCc3ccc(OCCCCOc4c5ccoc5cc5oc(=O)ccc45)cc3)(c3ccccc3)c3ccccc3)cc2)cc1)C(=O)N[C@H](C(=O)N[C@@H](Cc1ccccc1)C(=O)N[C@@H](Cc1ccccc1)C(=O)N[C@@H](Cc1ccc(O)cc1)C(=O)NCC(=O)NCC(=O)N[C@@H](CO)C(=O)N[C@@H](CCCNC(=N)N)C(=O)NCC(=O)N[C@@H](CCCCN)C(=O)N[C@@H](CCCNC(=N)N)C(=O)N[C@@H](CC(N)=O)C(=O)N[C@@H](CC(N)=O)C(=O)N[C@@H](Cc1ccccc1)C(=O)N[C@@H](CCCCN)C(=O)N[C@H](C(=O)N[C@@H](CCC(=O)O)C(=O)N[C@@H](CCC(=O)O)C(=O)N[C@@H](Cc1ccc(O)cc1)C(=O)O)[C@@H](C)O)[C@@H](C)O [An2-PAPTP],"Heart Psoralenic Species (nmol/g Tissue), 15 min",[1]; [6],0.2 ± 0.1 nmol/g Tissue
same,"Kidney Psoralenic Species (nmol/g Tissue), 15 min",[1]; [6],5 ± 4 nmol/g Tissue
same,"Spleen Psoralenic Species (nmol/g Tissue), 15 min",[1]; [6],28 ± 9 nmol/g Tissue
same,"Liver Psoralenic Species (nmol/g Tissue), 15 min","[1]; An2-PAPTP 5 µmoles/kg bw i.v., all species with psoralenic UV spectrum, 312 nm, no recovery correction, mean ± SEM, n = 5",23 ± 3 nmol/g Tissue
same,degradation of the peptide chain by liver peptidases,"[1]; An2-PAPTP 5 µmoles/kg bw i.v., liver, in vivo",degraded the peptide chain nearly completely in little more than one hour
same,"Heart Psoralenic Species (% of Administered Dose), 30 min, single animal",[1]; [7],0.07 % of Administered Dose
same,"Heart Psoralenic Species (nmol/g Tissue), 30 min, single animal",[1]; [7],0.36 nmol/g Tissue
same,"Kidney Psoralenic Species (% of Administered Dose), 30 min",[1]; [8],0.32 ± 0.07 % of Administered Dose
same,"Spleen Psoralenic Species (% of Administered Dose), 30 min",[1]; [8],0.27 ± 0.09 % of Administered Dose
same,"Heart Psoralenic Species (% of Administered Dose), 15 min",[1]; [9],0.07 ± 0.01 % of Administered Dose
same,"Kidney Psoralenic Species (% of Administered Dose), 15 min",[1]; [9],1.2 ± 0.8 % of Administered Dose
same,"Spleen Psoralenic Species (% of Administered Dose), 15 min",[1]; [9],1.2 ± 0.3 % of Administered Dose
same,"Kidney Psoralenic Species (% of Administered Dose), 60 min",[1]; [10],0.31 ± 0.03 % of Administered Dose
same,"Spleen Psoralenic Species (% of Administered Dose), 60 min",[1]; [10],0.8 ± 0.2 % of Administered Dose
same,"Heart Psoralenic Species (% of Administered Dose), 60 min","[1]; An2-PAPTP i.v., n = 6",0 % of Administered Dose
same,"Heart Psoralenic Species (nmol/g Tissue), 60 min","[1]; An2-PAPTP i.v., n = 6",0 nmol/g Tissue
same,"Liver Psoralenic Species (nmol/g Tissue), 30 min","[1]; as above, 30 min, n = 4",17 ± 2 nmol/g Tissue
same,"Liver Psoralenic Species (nmol/g Tissue), 60 min","[1]; as above, 60 min, n = 6",11 ± 3 nmol/g Tissue
same,"Kidney Psoralenic Species (nmol/g Tissue), 30 min","[1]; as above, n = 4",1.3 ± 0.2 nmol/g Tissue
same,"Spleen Psoralenic Species (nmol/g Tissue), 30 min","[1]; as above, n = 4",4.3 ± 1.4 nmol/g Tissue
same,"Kidney Psoralenic Species (nmol/g Tissue), 60 min","[1]; as above, n = 6",1.2 ± 0.1 nmol/g Tissue
same,"Spleen Psoralenic Species (nmol/g Tissue), 60 min","[1]; as above, n = 6",11 ± 3 nmol/g Tissue
same,solubility in 10 mM phosphate buffer,"[2]; 10 mM phosphate buffer, supernatants after centrifugation, HPLC",precipitated
same,solubility in 0.9% NaCl saline,"[2]; 0.9% NaCl saline, kinetic, 25 mM DMSO stock diluted to 100 μM (DMSO < 0.4%), sonicated 5 min, centrifuged 12,000 × g 18 °C 1 and 2 h, supernatant HPLC/UV, detection limit 0.1 µM",precipitated in saline; also recorded: insoluble in saline
same,solubility in water,"[2]; water, kinetic, 25 mM DMSO stock diluted to 100 μM (DMSO < 0.4%), sonicated, centrifuged 12,000 × g 18 °C, supernatant HPLC/UV",above 100 μM
same,observed toxicity in mice,[3],not made ill; also recorded: considerably less toxic than TAT-PAPTP; also recorded: did not show toxicity
same,haemolysis (release of haemoglobin),[4],did not induce a measurable release of haemoglobin
same,hydrolyzed in mouse blood over 4 h (PAPTPL released),[5],about 60%
